# B1: Sarcoplasmic reticulum histidine-rich calcium-binding protein (Homo sapiens), P23327 (parent)
# chain: MGHHRPWLHASVLWAGVASLLLPPAMTQQLRGDGLGFRNRNNSTGVAGLSEEASAELRHHLHSPRDHPDENKDVSTENGHHFWSHPDREKEDEDVSKEYGHLLPGHRSQDHKVGDEGVSGEEVFAEHGGQARGHRGHGSEDTEDSAEHRHHLPSHRSHSHQDEDEDEVVSSEHHHHILRHGHRGHDGEDDEGEEEEEEEEEEEEASTEYGHQAHRHRGHGSEEDEDVSDGHHHHGPSHRHQGHEEDDDDDDDDDDDDDDDDVSIEYRHQAHRHQGHGIEEDEDVSDGHHHRDPSHRHRSHEEDDNDDDDVSTEYGHQAHRHQDHRKEEVEAVSGEHHHHVPDHRHQGHRDEEEDEDVSTERWHQGPQHVHHGLVDEEEEEEEITVQFGHYVASHQPRGHKSDEEDFQDEYKTEVPHHHHHRVPREEDEEVSAELGHQAPSHRQSHQDEETGHGQRGSIKEMSHHPPGHTVVKDRSHLRKDDSEEEKEKEEDPGSHEEDDESSEQGEKGTHHGSRDQEDEEDEEEGHGLSLNQEEEEEEDKEEEEEEEDEERREERAEVGAPLSPDHSEEEEEEEEGLEEDEPRFTIIPNPLDRREEAGGASSEEESGEDTGPQDAQEYGNYQPGSLCGYCSFCNRCTECESCHCDEENMGEHCDQCQHCQFCYLCPLVCETVCAPGSYVDYFSSSLYQALADMLETPEP
# Variants of: B1
# Settings: with ryr2_mouse Ryr2, E9Q401
# ryr2_mouse Ryr2, E9Q401, sequence (E9Q401 whole entry): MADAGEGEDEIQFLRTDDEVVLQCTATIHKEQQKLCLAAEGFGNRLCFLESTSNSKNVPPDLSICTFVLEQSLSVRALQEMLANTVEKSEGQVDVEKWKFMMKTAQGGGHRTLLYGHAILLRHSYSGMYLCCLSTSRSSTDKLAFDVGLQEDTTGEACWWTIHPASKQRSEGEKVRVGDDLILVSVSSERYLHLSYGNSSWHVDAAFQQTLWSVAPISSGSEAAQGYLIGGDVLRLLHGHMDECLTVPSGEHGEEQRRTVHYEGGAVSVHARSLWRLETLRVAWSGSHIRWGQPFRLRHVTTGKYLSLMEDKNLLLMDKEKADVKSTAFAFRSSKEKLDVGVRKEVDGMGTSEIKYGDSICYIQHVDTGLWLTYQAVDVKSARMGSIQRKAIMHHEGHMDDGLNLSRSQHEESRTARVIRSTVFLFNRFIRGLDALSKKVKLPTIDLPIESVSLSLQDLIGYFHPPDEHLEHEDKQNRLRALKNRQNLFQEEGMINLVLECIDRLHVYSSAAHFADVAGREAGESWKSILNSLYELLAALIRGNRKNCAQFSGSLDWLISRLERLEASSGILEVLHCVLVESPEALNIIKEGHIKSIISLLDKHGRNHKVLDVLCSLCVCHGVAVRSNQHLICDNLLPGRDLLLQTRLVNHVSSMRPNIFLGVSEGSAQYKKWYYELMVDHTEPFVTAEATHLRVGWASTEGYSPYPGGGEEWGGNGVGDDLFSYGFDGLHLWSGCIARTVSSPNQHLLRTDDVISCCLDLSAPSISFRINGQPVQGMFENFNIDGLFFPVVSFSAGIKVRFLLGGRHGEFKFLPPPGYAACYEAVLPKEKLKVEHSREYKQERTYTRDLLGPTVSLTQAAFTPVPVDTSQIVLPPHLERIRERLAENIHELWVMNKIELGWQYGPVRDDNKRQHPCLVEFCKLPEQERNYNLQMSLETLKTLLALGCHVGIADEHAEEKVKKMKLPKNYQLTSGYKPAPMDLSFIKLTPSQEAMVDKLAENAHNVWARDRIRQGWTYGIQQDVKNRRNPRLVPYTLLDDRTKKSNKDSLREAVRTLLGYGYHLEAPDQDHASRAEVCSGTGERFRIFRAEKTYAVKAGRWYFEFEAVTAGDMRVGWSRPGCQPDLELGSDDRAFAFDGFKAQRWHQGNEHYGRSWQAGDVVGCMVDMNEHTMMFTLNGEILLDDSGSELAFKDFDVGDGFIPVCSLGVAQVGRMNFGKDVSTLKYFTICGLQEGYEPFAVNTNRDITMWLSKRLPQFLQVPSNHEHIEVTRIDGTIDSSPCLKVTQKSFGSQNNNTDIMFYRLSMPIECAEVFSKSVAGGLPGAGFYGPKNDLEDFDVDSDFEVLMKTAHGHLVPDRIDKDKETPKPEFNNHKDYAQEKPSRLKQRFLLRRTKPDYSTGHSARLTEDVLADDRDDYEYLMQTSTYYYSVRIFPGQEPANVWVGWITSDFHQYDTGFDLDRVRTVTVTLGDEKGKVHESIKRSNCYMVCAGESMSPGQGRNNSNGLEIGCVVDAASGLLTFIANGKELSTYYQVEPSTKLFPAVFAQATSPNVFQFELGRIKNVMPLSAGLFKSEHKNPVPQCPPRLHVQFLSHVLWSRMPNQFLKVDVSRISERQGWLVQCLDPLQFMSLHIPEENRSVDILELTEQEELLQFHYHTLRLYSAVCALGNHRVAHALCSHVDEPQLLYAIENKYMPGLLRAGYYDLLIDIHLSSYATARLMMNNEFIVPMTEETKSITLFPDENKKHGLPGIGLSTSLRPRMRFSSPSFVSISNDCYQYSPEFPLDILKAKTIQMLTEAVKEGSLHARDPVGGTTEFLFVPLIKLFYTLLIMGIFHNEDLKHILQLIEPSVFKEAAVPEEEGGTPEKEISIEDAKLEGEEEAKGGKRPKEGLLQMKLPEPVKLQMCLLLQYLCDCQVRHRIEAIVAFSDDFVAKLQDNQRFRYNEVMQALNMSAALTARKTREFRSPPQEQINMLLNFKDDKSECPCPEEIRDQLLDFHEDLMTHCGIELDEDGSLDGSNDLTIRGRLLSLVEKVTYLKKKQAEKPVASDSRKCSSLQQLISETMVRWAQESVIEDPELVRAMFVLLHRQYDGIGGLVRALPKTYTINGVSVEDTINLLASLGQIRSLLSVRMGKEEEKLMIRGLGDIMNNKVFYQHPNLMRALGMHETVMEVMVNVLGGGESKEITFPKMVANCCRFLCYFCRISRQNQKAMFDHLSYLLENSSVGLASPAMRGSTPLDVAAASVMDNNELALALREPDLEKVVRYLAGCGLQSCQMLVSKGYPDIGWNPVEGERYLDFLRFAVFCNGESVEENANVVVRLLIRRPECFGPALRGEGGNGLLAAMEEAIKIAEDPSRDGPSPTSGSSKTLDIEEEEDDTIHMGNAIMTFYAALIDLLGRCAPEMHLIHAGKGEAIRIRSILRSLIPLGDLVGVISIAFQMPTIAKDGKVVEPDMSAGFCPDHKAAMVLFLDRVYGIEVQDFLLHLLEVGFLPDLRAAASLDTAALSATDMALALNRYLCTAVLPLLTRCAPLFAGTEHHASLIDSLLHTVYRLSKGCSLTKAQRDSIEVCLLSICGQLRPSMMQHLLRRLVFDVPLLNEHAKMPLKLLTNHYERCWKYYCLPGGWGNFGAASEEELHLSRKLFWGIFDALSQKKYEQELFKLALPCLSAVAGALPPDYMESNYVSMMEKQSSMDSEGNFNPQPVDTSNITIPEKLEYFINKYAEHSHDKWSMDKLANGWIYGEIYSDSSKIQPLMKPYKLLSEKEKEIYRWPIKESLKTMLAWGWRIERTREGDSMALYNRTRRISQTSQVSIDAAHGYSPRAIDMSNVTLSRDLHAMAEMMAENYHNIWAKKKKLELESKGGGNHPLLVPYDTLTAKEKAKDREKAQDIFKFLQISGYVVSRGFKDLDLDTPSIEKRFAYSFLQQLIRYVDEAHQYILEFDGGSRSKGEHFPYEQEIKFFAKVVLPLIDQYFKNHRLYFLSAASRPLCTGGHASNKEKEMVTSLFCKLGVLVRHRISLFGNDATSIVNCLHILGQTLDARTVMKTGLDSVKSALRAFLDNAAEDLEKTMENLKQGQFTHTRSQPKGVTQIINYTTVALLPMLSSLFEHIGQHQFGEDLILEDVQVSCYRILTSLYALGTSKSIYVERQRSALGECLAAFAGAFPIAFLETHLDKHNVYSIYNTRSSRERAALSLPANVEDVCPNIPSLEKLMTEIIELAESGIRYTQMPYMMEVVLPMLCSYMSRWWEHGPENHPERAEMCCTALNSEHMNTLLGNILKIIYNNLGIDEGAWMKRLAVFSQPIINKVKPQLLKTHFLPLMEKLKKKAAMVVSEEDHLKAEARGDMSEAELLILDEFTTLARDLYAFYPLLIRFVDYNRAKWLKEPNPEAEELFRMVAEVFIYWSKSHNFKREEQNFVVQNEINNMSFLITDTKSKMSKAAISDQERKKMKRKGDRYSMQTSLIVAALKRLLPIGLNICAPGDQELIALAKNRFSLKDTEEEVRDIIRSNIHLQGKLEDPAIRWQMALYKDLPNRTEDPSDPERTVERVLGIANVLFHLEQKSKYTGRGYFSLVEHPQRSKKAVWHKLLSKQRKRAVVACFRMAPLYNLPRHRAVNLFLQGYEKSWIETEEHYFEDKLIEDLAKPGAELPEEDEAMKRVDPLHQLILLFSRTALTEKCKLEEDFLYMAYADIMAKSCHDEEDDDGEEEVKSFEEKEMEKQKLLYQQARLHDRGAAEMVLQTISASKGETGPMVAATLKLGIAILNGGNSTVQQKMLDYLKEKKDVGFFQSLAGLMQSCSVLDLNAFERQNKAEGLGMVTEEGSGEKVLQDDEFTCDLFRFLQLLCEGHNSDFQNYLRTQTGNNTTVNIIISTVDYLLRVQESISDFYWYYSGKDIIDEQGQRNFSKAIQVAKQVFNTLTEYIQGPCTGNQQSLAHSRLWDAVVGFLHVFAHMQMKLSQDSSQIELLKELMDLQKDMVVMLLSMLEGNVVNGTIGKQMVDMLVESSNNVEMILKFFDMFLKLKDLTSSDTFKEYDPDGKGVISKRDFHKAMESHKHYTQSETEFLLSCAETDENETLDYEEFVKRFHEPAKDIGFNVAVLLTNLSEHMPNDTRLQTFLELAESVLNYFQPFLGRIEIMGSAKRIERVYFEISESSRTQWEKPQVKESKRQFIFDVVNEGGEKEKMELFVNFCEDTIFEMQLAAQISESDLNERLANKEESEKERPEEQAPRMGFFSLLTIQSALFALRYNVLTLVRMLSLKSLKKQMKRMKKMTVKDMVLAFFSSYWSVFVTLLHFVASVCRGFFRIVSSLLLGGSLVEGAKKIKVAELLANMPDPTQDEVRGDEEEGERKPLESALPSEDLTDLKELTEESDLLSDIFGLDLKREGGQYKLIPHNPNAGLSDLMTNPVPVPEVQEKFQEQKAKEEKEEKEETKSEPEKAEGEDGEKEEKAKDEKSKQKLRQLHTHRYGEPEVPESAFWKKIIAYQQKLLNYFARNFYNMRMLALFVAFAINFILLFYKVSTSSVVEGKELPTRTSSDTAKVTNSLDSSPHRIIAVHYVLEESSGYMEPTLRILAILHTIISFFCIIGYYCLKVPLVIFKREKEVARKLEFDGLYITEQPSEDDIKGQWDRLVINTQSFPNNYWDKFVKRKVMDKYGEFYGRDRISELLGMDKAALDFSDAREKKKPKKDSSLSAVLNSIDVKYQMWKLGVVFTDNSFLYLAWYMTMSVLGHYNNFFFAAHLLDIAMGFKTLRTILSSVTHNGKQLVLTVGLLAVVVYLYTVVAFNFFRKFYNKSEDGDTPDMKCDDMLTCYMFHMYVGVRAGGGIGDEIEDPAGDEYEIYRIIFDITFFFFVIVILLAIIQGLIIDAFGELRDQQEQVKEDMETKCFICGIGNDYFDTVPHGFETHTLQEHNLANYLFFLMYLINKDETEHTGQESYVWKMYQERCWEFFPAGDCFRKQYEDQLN
row,effect of a mutation on the interaction,Variant
1,decreasing interaction strength,S96A

# — IntAct's records for PubMed 24805197
